Laboratory results as given in publication PMC11300603.

Key:
[1] = molecular target: CpaF from C. crescentus (C. crescentus NA1000); assay: cryo-EM structure; 5 mg/mL CpaF without nucleotide addition, in the presence of Mg2+, 8 mM CHAPSO; single particle, C2 symmetry
[2] = molecular target: CpaF from C. crescentus (C. crescentus NA1000); assay: cryo-EM structure; 5 mg/mL CpaF with 4 mM AMPPNP, 5 mM MgSO4 in total, 8 mM CHAPSO, 45 min at room temperature before vitrification; single particle, C2 symmetry
[3] = molecular target: CpaF from C. crescentus (C. crescentus NA1000); assay: cryo-EM structure; 5 mg/mL CpaF with 4 mM ADP, 5 mM MgSO4 in total, 8 mM CHAPSO, 45 min at room temperature before vitrification; single particle, C2 symmetry

stoichiometry N [1]: 6 | stoichiometry N [2]: 6 | stoichiometry N [3]: 6
Substance: CpaF from C. crescentus (enzyme)
